The record followed here is US20200317768A1 (published 2020).

Numbering of substitutions follows the chain as printed.

Holding throughout (assay): SPR (BIACORE), 25 C, antibody captured, FcgR as analyte; KD of SG1 divided by KD of variant;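 also: relative to parent M103205H795-SG1 carrying the SG1 human heavy chain constant region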
(In general: In SPR one partner is held on a chip, and binding of the other changes the refractive index at the surface.)

For assay [1], the target named is T1, cynomolgus monkey FcγRIIa3 extracellular domain, His-tagged (cynomolgus monkey).
T1 construct: also called cyno FcγRIIa3; FcgRIIa3; not shown: C-terminal His-tag
T1 chain: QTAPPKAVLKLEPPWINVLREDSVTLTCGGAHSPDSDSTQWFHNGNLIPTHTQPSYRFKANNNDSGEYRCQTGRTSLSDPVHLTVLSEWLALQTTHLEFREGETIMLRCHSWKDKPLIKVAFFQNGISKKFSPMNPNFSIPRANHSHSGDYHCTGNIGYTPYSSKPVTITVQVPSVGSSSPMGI
Here is the method:
(§1) The kinetic analysis of interactions between these antibodies and FcγR was carried out using BIACORE® T200 or BIACORE® 4000 (GE Healthcare). HBS-EP+ (GE Healthcare) was used as the running buffer, and the measurement temperature was set to 25° C. A chip produced by immobilizing Protein A. Protein A/G or mouse anti-human IgG kappa light chain (BD Biosciences) onto a Series S Sensor Chip CM4 or CM5 (GE Healthcare) by the amine-coupling method was used. […] After the measurement, the antibody captured on the chip was washed off by allowing reaction with 10 mM glycine-HCl, pH1.5 and 25 mM NaOH so that the chip was regenerated and used repeatedly. The sensorgrams obtained as measurement results were analyzed by the 1:1 Langmuir binding model using the BIACORE® Evaluation Software to calculate the binding rate constant ka (L/mol/s) and dissociation rate constant kd (l/s), and the dissociation constant KD (mol/L) was calculated from these values. […] Regarding such interactions, KD values were calculated using the following 1:1 binding model described in BIACORE® T100 Software Handbook BR1006-48 Edition AE.

The target in assay [2] is T2, human FcγRIIb extracellular domain, His-tagged (human, UniProt P31994 43-217).
T2 construct: also called FcgRIIb (human); not shown: C-terminal His-tag
T2 sequence: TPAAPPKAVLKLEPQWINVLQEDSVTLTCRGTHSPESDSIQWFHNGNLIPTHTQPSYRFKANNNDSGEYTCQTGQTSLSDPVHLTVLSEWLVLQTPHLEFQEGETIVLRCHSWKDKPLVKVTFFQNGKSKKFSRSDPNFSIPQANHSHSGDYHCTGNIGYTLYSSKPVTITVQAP
Here is the method: as §1

The target in assay [3] is T3, human FcγRIIaH extracellular domain, His-tagged (human, UniProt P12318 34-217).
T3 construct: also called human FcγRIIa (type H); FcgRIIaH; not shown: C-terminal His-tag
T3 sequence: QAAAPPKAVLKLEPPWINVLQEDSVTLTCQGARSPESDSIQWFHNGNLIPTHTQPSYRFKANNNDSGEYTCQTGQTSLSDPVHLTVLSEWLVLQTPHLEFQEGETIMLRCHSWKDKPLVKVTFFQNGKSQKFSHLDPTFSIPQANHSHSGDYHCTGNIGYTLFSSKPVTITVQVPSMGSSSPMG
Here is the method: as §1

The target of assay [4] is T4, human FcγRIIIaV extracellular domain, His-tagged (human, UniProt P08637 17-208).
T4 construct: also called human FcγRIIIa (V158); FcgRIIIaV; not shown: C-terminal His-tag
T4 sequence (P08637 17-208 F176V): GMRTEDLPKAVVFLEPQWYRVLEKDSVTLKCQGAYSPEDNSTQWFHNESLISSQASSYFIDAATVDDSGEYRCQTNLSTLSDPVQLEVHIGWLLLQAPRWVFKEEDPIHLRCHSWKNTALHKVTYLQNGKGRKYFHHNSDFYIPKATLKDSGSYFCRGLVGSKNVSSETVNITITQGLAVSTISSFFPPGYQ
How it is done: as §1

In assay [5] the target is T5, human FcγRIIaR extracellular domain, His-tagged (human, UniProt P12318 34-217).
T5 construct: also called human FcγRIIa (type R); FcgRIIaR; not shown: C-terminal His-tag
T5 chain: T3 sequence with H134R
Here is the method:
as §1

Assay [6] concerns the target T6, cynomolgus monkey FcγRIIb extracellular domain, His-tagged (cynomolgus monkey).
T6 construct: also called cyno FcγRIIb; cynoFcγRIIb; not shown: C-terminal His-tag
T6 chain: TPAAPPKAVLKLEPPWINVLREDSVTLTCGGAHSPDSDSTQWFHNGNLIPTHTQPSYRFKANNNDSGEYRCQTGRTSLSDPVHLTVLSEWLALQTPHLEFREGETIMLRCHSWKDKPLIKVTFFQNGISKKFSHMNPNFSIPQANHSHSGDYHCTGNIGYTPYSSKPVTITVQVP
Here is the method: as §1

Assay [7] deals with T7, cynomolgus monkey FcγRIIIaS extracellular domain, His-tagged (cynomolgus monkey, UniProt Q8SPW2 21-206 at identity 1.00)).
T7 construct: also called cyno FcγRIIIaS; FcgRIIIaS; not shown: C-terminal His-tag
T7 chain: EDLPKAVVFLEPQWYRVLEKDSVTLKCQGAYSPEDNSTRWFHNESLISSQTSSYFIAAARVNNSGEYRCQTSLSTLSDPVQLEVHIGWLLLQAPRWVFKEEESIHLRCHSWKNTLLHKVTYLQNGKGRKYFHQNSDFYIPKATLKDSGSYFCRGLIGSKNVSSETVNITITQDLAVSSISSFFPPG
How it is done:
as §1

Assay [8] addresses T8, cynomolgus monkey FcγRIIa1 extracellular domain, His-tagged (cynomolgus monkey).
T8 construct: also called cyno FcγRIIa1; FcgRIIa1; not shown: C-terminal His-tag
T8 chain: T1 chain with T95P, A121T, S128A, P133H, N135D
How it is done: as §1

In assay [9] the target is T9, cynomolgus monkey FcγRIIa2 extracellular domain, His-tagged (cynomolgus monkey).
T9 construct: also called cyno FcγRIIa2; FcgRIIa2; not shown: C-terminal His-tag
T9 chain: T1 chain with I127K, K130N, P133H, R142Q
Here is the method:
as §1

B1: M103205H795-MY452 / M103202L889-SK1 (antibody, human IgG1, kappa)
heavy: QVTLKESGPVLVKPTETLTLTCTVSGIDLSHDDISWVRQAPGKGLEWVGIISYAGSTYYASWAKGRLTISKDTSKNQVVLTMTNMDPVDTATYYCARGVPAYSHGGDLWGQGTLVTVSSASTKGPSVFPLAPSSKSTSGGTAALGCLVKDYFPEPVTVSWNSGALTSGVHTFPAVLQSSGLYSLSSVVTVPSSSLGTQTYICNVNHKPSNTKVDKKVEPKSCDKTHTCPPCPAQELLTGPSVFLFPPKPKDTLMISRTPEVTCVVVDVSDEDPEVKFNWYVDGVEVHNAKTKPREEQYNSTYRVVSVLTVLHQDWLNGKEYKCKVSNKALPKPIEKTISKAKGQPREPQVYTLPPSREEMTKNQVSLTCLVKGFYPSDIAVEWESNGQPENNYKTTPPVLDSDGSFFLYSKLTVDKSRWQQGNVFSCSVMHEALHNHYTQKSLSLSP
light: DIVMTQSPATLSLSPGERATLSCTSSQSVYHANWLSWFQQKPGQPPKLLIYWASTLAYGVPSRFSGSGSGTDFTLTISSLQPEDAATYYCAGGYGGGRYAFGQGTKVEIKRTVAAPSVFIFPPSDEQLKSGTASVVCLLNNFYPREAKVQWKVDNALQSGNSQESVTEQDSKDSTYSLSSTLTLSKADYEKHKVYACEVTHQGLSSPVTKSFNRGEC
notes: substitution positions are EU numbers
B1: the “KD fold (SG1 = 1)” value is 1.6 fold in assay [1]; 1.6 fold in assay [2]; 1.9 fold in assay [3]; 0.1 fold in [4]; 1.8 fold in assay [5]; 2 fold in assay [6]. The “KD fold (SG1 = 1)” value is 0.1 fold in assay [7], 0.9 fold in [8] and 1.6 fold in assay [9].

B2: M103205H795-MY457 / M103202L889-SK1 (antibody, human IgG1, kappa)
heavy: B1 heavy with Q234W
light: B1 light
notes: as for B1
As to B2, the “KD fold (SG1 = 1)” value in assay [1] was 14.2 fold; in [2] it was 13.9 fold; in assay [3], 5.3 fold; in [4], 0.2 fold; in assay [5], 15.1 fold; in assay [6] it was 9 fold. Further, the “KD fold (SG1 = 1)” value is 0.3 fold in assay [7], 4 fold in [8] and 6.1 fold in assay [9].

B3: M103205H795-MY455 / M103202L889-SK1 (antibody, human IgG1, kappa)
heavy: B1 heavy with Q234T
light: B1 light
notes: as for B1
Regarding B3, the “KD fold (SG1 = 1)” value was 3.1 fold in assay [1]; 2.1 fold in [2]; 2.2 fold in assay [3]; 0.1 fold in assay [4]; 2.4 fold in assay [5]; 2 fold in [6]. For the same molecule, the results for the “KD fold (SG1 = 1)” value in assay [7], in assay [8] and in assay [9] were 0.1 fold, 1 fold and 1.8 fold, respectively.

B4: M103205H795-MY453 / M103202L889-SK1 (antibody, human IgG1, kappa)
heavy: B1 heavy with Q234R
light: B1 light
notes: as for B1
For B4, the “KD fold (SG1 = 1)” value was 0.8 fold in assay [1]; 0.7 fold in assay [2]; 0.9 fold in assay [3]; 0.1 fold in [4]; 0.7 fold in assay [5]; 0.3 fold in assay [6]. Moreover, the “KD fold (SG1 = 1)” value in assay [7] is 0.1 fold; in assay [8], 0.5 fold; in assay [9] it was 0.5 fold.

B5: M103205H795-MY456 / M103202L889-SK1 (antibody, human IgG1, kappa)
heavy: B1 heavy with Q234V
light: B1 light
notes: as for B1
In the case of B5, the “KD fold (SG1 = 1)” value came to 5 fold in assay [1]; 4.2 fold in [2]; 4.1 fold in assay [3]; 0.2 fold in assay [4]; 3.8 fold in [5]; 3.5 fold in assay [6]. In addition, the “KD fold (SG1 = 1)” value in [7] stood at 0.2 fold; in assay [8] it was 1.7 fold; in [9], 3 fold.

B6: M103205H795-MY458 / M103202L889-SK1 (antibody, human IgG1, kappa)
heavy: B1 heavy with Q234Y
light: B1 light
notes: as for B1
Turning to B6, the “KD fold (SG1 = 1)” value in assay [1] was 5.7 fold; in [2], 4.6 fold; in [3] it was 4.3 fold; in [4], 0.2 fold; in assay [5] it was 6.5 fold; in [6], 4.2 fold. In addition, the “KD fold (SG1 = 1)” value in assay [7] amounted to 0.3 fold; in assay [8] it was 1.8 fold; in [9] it was 3.2 fold.

B7: M103205H795-MY454 / M103202L889-SK1 (antibody, human IgG1, kappa)
heavy: B1 heavy with Q234S
light: B1 light
notes: as for B1
With B7, the “KD fold (SG1 = 1)” value in assay [1] was 1.2 fold; in assay [2], 1.5 fold; in assay [3] it was 1.7 fold; in assay [4] it was 0.1 fold; in assay [5], 1.4 fold; in assay [6] it was 1.3 fold. Further, the “KD fold (SG1 = 1)” value was 0.1 fold in assay [7], 0.8 fold in [8] and 1.6 fold in [9].
